Data taken from the supplement of paper PMC12636428.

System: Saccharomyces cerevisiae
Assay: transcriptional activation domain activity (GFP:mCherry ratio, weighted mean of sorted bins, harmonized to initial dataset scale) (arbitrary fluorescence ratio units); higher = stronger transcriptional activation
Details: beta-estradiol 1 µM; induction time 4 h
Protocol: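 53-aa protein tiles (fungal proteins plus yeast TF control tiles) fused C-terminally to a DBD-estrogen-binding domain-mCherry synthetic TF, integrated in S. cerevisiae (URA3 locus) with a GFP reporter. Cells were induced with 1 uM beta-estradiol for 4 h at 30 C, FACS-sorted into 8 bins by GFP:mCherry ratio and barcodes sequenced. Activity is the read-weighted mean bin fluorescence (GFP:mCherry), averaged over barcodes (median 12); tiles under 50 reads were discarded. New active-learning values were harmonized by linear fit onto the scale of the initial (Hummel et al.) dataset. The assay saturates at low and high signal.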

| Sequence | transcriptional activation domain activity |
| --- | --- |
| TMFHGLLFHLCHGAAVLVVWSFHHVVCSMRDDEETLQVMEELDYVIHVLNAFA | 47800 |
| NSGDEGDAGAAEVEAPKSKKKRGRAAKEEDDDEETPAPVPKKARGRAKKATKE | 23700 |
| MVNNYWSYQYSLMPFLFFFFVSQFKSCSYFFFSLLFFSWLFRFLVSYFLSWKT | 71500 |
| MKKLEKLLLSNDLTSQKKAFLVLCRMHYLTSSLLSSCVVVLVVGWSSIQKNTT | 63400 |
| HFILTYLLLFMSVPFEFVMASFEFFHLIHCLKFPNTFYSFFFSFVFFLRHFVF | 56700 |
| MPNCLNIRFFLFFLLKFLYAPLSFLLFPYPSHAYLFFHVLLLINCLFVDVIPV | 54600 |
| MQQLFTFGSLFFPSFHPFFFFFFFFCHPSFLFFFLPSFLPFFLFFFLPSFLPF | 58000 |
| APTTSKKRGRKADTNSDDAGSPSEPRRLRRSHEACARCRSKKIKASPVGRHRP | 30900 |
| EKGKSIWIGRDNLEVNVETLALQWYEDQGFKGIHSETRIITTLFGILFWDIIF | 55900 |
| MIVLCASFFYILSSLSLFFFFLTLPIMHFLPFSRLFIFSCFLFPLYLFTSFFL | 31000 |
| MSEPPRKRAKLACVTCNARRVKCDVTERQPCGNCVAGKILCETRESKRGKHPR | 33800 |
| FRFLLKLLLVHGRWNYIRTCKYTLGTFWKEMLFYLTQALYQRWAGYTGTSLYE | 54800 |
| FDYMICPVHDLGIPAPLSVFLSTVLNRAVTTIPYAPYQTHLFFLSCFVSLVAP | 40500 |
| MASGILGLLVVNFVLLLICFIAYSSQIFVIWPWYGRTVSVELISLLLPFNILV | 42800 |
| PLFSILFSLSSFLSLPCPAHGCGPVGSWWSCLFLLFFFLSLLVMLSLLWCFGF | 41000 |
| EEDLWTMTNLFVSPVARSLPCTSLLLCLCSLLVYLLASLTFPYLAFFLVFILF | 53000 |
| MLTLLLLTLIIFLSSTLVLLFFFLIPLFLICLLTFLLIFFSSPRAFFSFPHPT | 47800 |

| Sequence | transcriptional activation domain activity |
| --- | --- |
| MGLGVLYHLSLLFPFLFFFLSLLFFSLLSSSFFLLWLFPISCLGFIVLFWTGS | 22200 |
| RAVAVLRRGDFAGAGGGGGSGAGGGKRRKEKEKEEQEERRRRPAVASRAVKDL | 57500 |
| GPTIRHKMNLFHVYGRRNPHLRLMISLIYVWMRSWGVKEMSPGTLCLLLIRFF | 59800 |
| RAYQQPILEYCRDAIDKESATTLSDERTVSKDDAEAKYSRVISACISLLASLL | 30600 |
| GVFILCRKRIVYMDGWRVWGVLIFRLFTWLFLGWLKIARGLGLGPALMMFLWL | 46200 |
| MPPKRGRPKKASTPPPAPVEDEAPAPVAAPRGRGRPRKVQPSGDPEQTTAPTP | 28500 |
| NILRPSLGCILFILIRYVSIIVMVVSNYGVLATSFTVEVCNRYYLVAPVFKVL | 46800 |
| YSASPLEGDSSLPSSLPSSTEDCLLLSLENTITVIAGNQRQAYDSTSSTEEGT | 16100 |
| VLLLKTLLSPVVVPDLDDHSLVLKQFKTFHWQRKNLTSVINILAQALYSLFAA | 27800 |
| MDFNQLLAIFYDCIFPFREFYRWLYYGGVVQKNYFLHRELSFTLSNDAYLRFK | 41100 |
| PDRLDGRCVPDLSFFSVGDFTPISLVFFLSFPLLLFFFSFFFFFFFFFFFFFF | 37700 |
| ANPEPTDDDFHIFGGRHVFFTTDDPWLIFLGFILQHLDRLLNRMLFWWCVEWV | 56900 |
| HSPEAANAALRAMDGHSLEGHALKIQGSHRGADAAEERRKEDAAKKATGTKIL | 44000 |
| GANADELGHIIVTRRNRFWKIKGIVGGRILSMPELERWTLFVLLMCFRLHIYP | 23900 |
| NGNMIVNFFYKNIICIGCLWWFQIYCGWSSQYVFEYTYLLFWNVFWSLCPVIA | 38800 |
| VCQPLSPPVTGVLLVSFLPLFSRAFLAFLLSTLWLFSPLSDHILYYFCFYLAL | 35200 |
| EWNRSVNSTYPLLYRGVDFLQKSLSWLKILRLSYLHPLQFFGCFGFGLLVVHI | 60200 |
